Read-outs that look alike come from different tables or passages of the source. Blank lines part the entries; values can stand above or below the molecule they belong to.
Legend:
actin = assay: MST
[1] = target: human β-cardiac short S1 (sS1) with a C-terminal GFP, wild type (human) (UniProt P12883); assay: MST
[2] = target: heavy chain (HC) of the 2-hep HMM construct of human β-cardiac myosin; assay: stoichiometry of the purified complex
[3] = target: R403Q human β-cardiac sS1 with a C-terminal GFP (human, UniProt P12883 1-808, R403Q); assay: MST
[4] = target: T1, human β-cardiac short S1 (sS1) with a C-terminal GFP, wild type (human, UniProt P12883 1-808); assay: MST
[5] = target: R249Q human β-cardiac sS1 with a C-terminal GFP (human, UniProt P12883 1-808, R249Q); assay: MST
[6] = target: R453C human β-cardiac sS1 with a C-terminal GFP (human, UniProt P12883 1-808, R453C); assay: MST
[7] = target: T1, human β-cardiac short S1 (sS1) with a …; assay: MST; remark: listed apart in the source
[8] = target: MyBP-C (construct and phosphorylation state not told for these experiments) (human, UniProt Q14896 1-1274); assay: MST
Sequence of MyBP-C (construct and phosphorylation state not told for these experiments) (Q14896 whole entry): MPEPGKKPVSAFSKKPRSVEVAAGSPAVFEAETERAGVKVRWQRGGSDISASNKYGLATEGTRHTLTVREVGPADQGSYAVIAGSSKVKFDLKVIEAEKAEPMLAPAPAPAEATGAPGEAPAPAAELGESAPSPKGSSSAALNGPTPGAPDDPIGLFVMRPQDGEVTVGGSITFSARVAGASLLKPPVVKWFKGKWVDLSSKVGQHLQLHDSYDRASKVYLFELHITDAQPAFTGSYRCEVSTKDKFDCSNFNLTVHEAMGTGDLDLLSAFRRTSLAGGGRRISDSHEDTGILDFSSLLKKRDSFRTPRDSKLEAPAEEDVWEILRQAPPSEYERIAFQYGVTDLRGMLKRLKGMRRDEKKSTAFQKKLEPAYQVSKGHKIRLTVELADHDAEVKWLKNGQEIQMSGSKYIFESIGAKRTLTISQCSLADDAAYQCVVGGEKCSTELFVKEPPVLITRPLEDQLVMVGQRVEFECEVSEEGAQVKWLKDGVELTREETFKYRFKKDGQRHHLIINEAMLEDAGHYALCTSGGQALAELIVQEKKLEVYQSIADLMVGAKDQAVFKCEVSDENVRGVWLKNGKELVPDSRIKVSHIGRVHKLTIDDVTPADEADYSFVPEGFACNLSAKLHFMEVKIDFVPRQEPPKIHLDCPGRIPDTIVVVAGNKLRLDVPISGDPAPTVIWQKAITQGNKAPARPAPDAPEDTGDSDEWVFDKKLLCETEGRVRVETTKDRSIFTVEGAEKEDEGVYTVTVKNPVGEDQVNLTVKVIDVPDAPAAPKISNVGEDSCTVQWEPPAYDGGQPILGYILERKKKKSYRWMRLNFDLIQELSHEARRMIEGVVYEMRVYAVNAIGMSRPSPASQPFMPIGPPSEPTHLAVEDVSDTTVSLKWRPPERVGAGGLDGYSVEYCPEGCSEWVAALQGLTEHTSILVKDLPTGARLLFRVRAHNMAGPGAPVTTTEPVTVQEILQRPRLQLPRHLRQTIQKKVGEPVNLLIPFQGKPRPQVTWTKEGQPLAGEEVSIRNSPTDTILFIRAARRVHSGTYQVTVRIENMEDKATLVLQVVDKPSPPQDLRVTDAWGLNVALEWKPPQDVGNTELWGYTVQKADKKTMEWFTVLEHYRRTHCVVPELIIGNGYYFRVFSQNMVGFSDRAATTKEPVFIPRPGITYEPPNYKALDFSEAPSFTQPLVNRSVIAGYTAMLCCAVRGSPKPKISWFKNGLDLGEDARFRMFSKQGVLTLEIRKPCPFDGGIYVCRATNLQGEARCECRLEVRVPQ

[9] = target: full-length recombinant human cardiac MyBP-C, nonphosphorylated (human, UniProt Q14896 1-1274); assay: MST
Sequence of full-length recombinant human cardiac MyBP-C, nonphosphorylated (Q14896 whole entry): as above

Molecule: MyBP-C (construct and phosphorylation state not told for these experiments) (from UniProt Q14896 1-1274) (natural protein)
Kd (actin): 5 µM

Molecule: human cardiac myosin essential light chain (ELC) (from UniProt P08590 1-195) (natural protein)
stoichiometry N [2]: 1

B1: proximal part of human cardiac myosin subfragment 2 (proximal S2), wild type (domain or fragment, UniProt P12883 841-966, looked up)
chain: KSAEREKEMASMKEEFTRLKEALEKSEARRKELEEKMVSLLQEKNDLQLQVQAEQDNLADAEERCDQLIKNKIQLEAKVKEMNERLEDEEEMNAELTAKKRKLEDECSELKRDIDDLELTLAKVEK
Kd [3]: 54 ± 4 µM | Kd [4]: 46 ± 7 µM | Kd [5]: > 300 µM | Kd [6]: > 90 µM | Kd [7]: 4 ± 1 µM

B2: proximal S2 of human cardiac myosin labelled with Cy5 (domain or fragment, UniProt P12883 841-966, looked up)
chain: KSAEREKEMASMKEEFTRLKEALEKSEARRKELEEKMVSLLQEKNDLQLQVQAEQDNLADAEERCDQLIKNKIQLEAKVKEMNERLEDEEEMNAELTAKKRKLEDECSELKRDIDDLELTLAKVEK
modifications: Cy5 (site not stated)
Kd [8]: ~7 µM

B5: human β-cardiac short S1 (sS1) labelled with Cy5 on cysteine residues (domain or fragment, UniProt P12883 1-808, looked up)
chain: MGDSEMAVFGAAAPYLRKSEKERLEAQTRPFDLKKDVFVPDDKQEFVKAKIVSREGGKVTAETEYGKTVTVKEDQVMQQNPPKFDKIEDMAMLTFLHEPAVLYNLKDRYGSWMIYTYSGLFCVTVNPYKWLPVYTPEVVAAYRGKKRSEAPPHIFSISDNAYQYMLTDRENQSILITGESGAGKTVNTKRVIQYFAVIAAIGDRSKKDQSPGKGTLEDQIIQANPALEAFGNAKTVRNDNSSRFGKFIRIHFGATGKLASADIETYLLEKSRVIFQLKAERDYHIFYQILSNKKPELLDMLLITNNPYDYAFISQGETTVASIDDAEELMATDNAFDVLGFTSEEKNSMYKLTGAIMHFGNMKFKLKQREEQAEPDGTEEADKSAYLMGLNSADLLKGLCHPRVKVGNEYVTKGQNVQQVIYATGALAKAVYERMFNWMVTRINATLETKQPRQYFIGVLDIAGFEIFDFNSFEQLCINFTNEKLQQFFNHHMFVLEQEEYKKEGIEWTFIDFGMDLQACIDLIEKPMGIMSILEEECMFPKATDMTFKAKLFDNHLGKSANFQKPRNIKGKPEAHFSLIHYAGIVDYNIIGWLQKNKDPLNETVVGLYQKSSLKLLSTLFANYAGADAPIEKGKGKAKKGSSFQTVSALHRENLNKLMTNLRSTHPHFVRCIIPNETKSPGVMDNPLVMHQLRCNGVLEGIRICRKGFPNRILYGDFRQRYRILNPAAIPEGQFIDSRKGAEKLLSSLDIDHNQYKFGHTKVFFKAGLLGLLEEMRDERLSRIITRIQAQSRGVLARMEYKKLLERR
modifications: Cy5-labeled cysteine residues
Kd [9]: 17 ± 2 µM

The remaining lines, values ahead:

Kd [1]: 0.25 µM
Molecule: actin (natural protein)

Kd [4]: 59 ± 2 µM
B3: R870H mutant proximal S2 of human cardiac myosin (domain or fragment, UniProt P12883 841-966, looked up)
chain: KSAEREKEMASMKEEFTRLKEALEKSEARHKELEEKMVSLLQEKNDLQLQVQAEQDNLADAEERCDQLIKNKIQLEAKVKEMNERLEDEEEMNAELTAKKRKLEDECSELKRDIDDLELTLAKVEK

stoichiometry N [2]: 1
B4: human cardiac myosin regulatory light chain (RLC) (natural protein)
chain: MAPKKAKKRAGGANSNVFSMFEQTQIQEFKEAFTIMDQNRDGFIDKNDLRDTFAALGRVNVKNEEIDEMIKEAPGPINFTVFLTMFGEKLKGADPEETILNAFKVFDPEGKGVLKADYVREMLTTQAERFSKEEVDQMFAAFPPDVTGNLDYKNLVHIITHGEEKD

— PMC5737966 (Nature structural & molecular biology, 2017)
